Source: patent CN114805590A (SUNSHINE GUOJIAN PHARMACEUTICAL SHANGHAI CO LTD, dated 2022)

How the values were obtained:
HER2-DI-DIII-his = molecular target: T1, HER2-DI-DIII-his (Homo sapiens (Human), UniProt P04626 23-510); assay: ELISA, plate coated with HER2-DI-DIII-his, detection with HRP-anti human IgG Fc
T1 construct: also called HER2-ECD-DI-DIII

[1] = molecular target: T2, HER2-DI-DIII-V483A/D480A/E485A (Homo sapiens (Human), UniProt P04626 23-513); assay: ELISA, plate coated with HER2-DI-DIII-V483A/D480A/E485A
T2 chain: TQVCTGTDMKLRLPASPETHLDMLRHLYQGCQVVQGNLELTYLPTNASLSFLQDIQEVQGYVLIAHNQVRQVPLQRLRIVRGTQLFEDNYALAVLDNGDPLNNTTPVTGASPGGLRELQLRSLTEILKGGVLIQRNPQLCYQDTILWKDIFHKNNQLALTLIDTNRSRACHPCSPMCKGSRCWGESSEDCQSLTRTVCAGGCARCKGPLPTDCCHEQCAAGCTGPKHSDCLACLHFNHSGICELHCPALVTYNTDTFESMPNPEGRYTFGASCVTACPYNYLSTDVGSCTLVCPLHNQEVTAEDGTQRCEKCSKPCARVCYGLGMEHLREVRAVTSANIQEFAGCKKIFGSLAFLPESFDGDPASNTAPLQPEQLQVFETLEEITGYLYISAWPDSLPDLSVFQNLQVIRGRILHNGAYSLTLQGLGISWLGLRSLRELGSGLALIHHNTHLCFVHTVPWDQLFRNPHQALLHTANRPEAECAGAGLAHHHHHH

[2] = molecular target: T3, HER2 (on HER2高表达细胞株 N87 / BT474) (UniProt P04626 23-1255, limits assumed); assay: cell-based or functional assay
[3] = molecular target: T3, HER2 (on HER2高表达细胞株 N87 / BT474); assay: cell-based or functional assay; remark: listed apart in the source
HER2-DI-DIII-L295P/H296N = molecular target: T4, HER2-DI-DIII-L295P/H296N (Homo sapiens (Human), UniProt P04626 23-510); assay: ELISA, plate coated with HER2-DI-DIII-L295P/H296N
T4 construct: also called HER2-DI-DIII-L295/H296N

B1: 抗HER2抗体612 (antibody, V domains shown)
VH: QVQLVQSGAEVKKPGASVKVSCKGSGYTFTDYAIHWVRQAPGQSLEWIGVFSIYYENINYNQKFKGRATMTVDKSTSTAYMELRSLRSDDTAVYYCARRDGGTINYWGQGTLVTVSS
VL: DVVMTQSPLSLPVTLGQPASISCRSSQSLVHSNGNTYLHWYQQRPGQSPRLLIYKVSNRFSGVPDRFSGSGSGTDFTLKISRVEAEDVGVYFCSQSTHIPWTFGQGTKVEIK
notes: No visible text gives the full heavy chain; also called 19H6-Hu
EC50 (HER2-DI-DIII-his): 0.043 nM
binding result [1]: no binding (tested: 最高浓度为10nM)
最大抑制率(%), BT474细胞增殖 (CCK8) [2]: 47.1%
最大抑制率(%), N87细胞增殖 (CCK8) [3]: 41.8%
EC50 (HER2-DI-DIII-L295P/H296N): 0.027 nM
